In patent publication US20250152742A1, “COMPOSITIONS AND METHODS FOR NEUROLOGICAL DISEASES” (Trames Bio, Inc., priority 2022, published 2025):

Tested on: engineered chimeric receptor SEQ ID NO: 33 and its mutants (human α7-nAChR ligand binding domain / human GlyRα1 ion pore domain) in Lenti-X 293T cells
Experiment: YFP fluorescence quenching anion reporter plate reader assay (percent quench, EC50)
Format: cell-based
Conditions: for YFP fluorescence quenching using CNL001 (percent quench): receptor named in row; for YFP fluorescence quenching using Facinicline, 30 nM fac: ligand Facinicline 30 nM; for YFP fluorescence quenching using Facinicline, 300 nM fac: ligand Facinicline 300 nM; for YFP fluorescence quenching using Facinicline, 10 uM fac: ligand Facinicline 10 uM; for YFP fluorescence quenching using Facinicline, 30 uM fac: ligand Facinicline 30 uM; for YFP fluorescence quenching using TC-6987, 1 uM tc6987: ligand TC-6987 1 uM; for YFP fluorescence quenching using TC-6987, 10 uM tc6987: ligand TC-6987 10 uM; for YFP fluorescence quenching using TC-6987, 500 uM tc6987: ligand TC-6987 500 uM; for YFP fluorescence quenching using Varenicline, 3 nM var: ligand Varenicline 3 nM; for YFP fluorescence quenching using Varenicline, 30 nM var: ligand Varenicline 30 nM; for YFP fluorescence quenching using Varenicline, 300 nM var: ligand Varenicline 300 nM; for YFP fluorescence quenching using Varenicline, 500 nM var: ligand Varenicline 500 nM; for YFP fluorescence quenching using Varenicline, 1 uM var: ligand Varenicline 1 uM
Summary of the method: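 Percent quench compares mean YFP signal over the final 10 s with the 15 s baseline before ligand, added in iodide-containing extracellular solution (pH 7.2). Cells were LX293T carrying a YFP anion reporter, transiently transfected with the channel construct; plates were preincubated 30 min at 37 °C.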

[1] = 1 nM CNL001, first column so headed
[2] = 1 nM CNL001, second column so headed
[3] = 1 nM brd (TC-5619/Bradanicline)
[4] = 3 nM brd (TC-5619/Bradanicline)
[5] = 10 nM CNL001, first column so headed
[6] = 10 nM CNL001, second column so headed
[7] = 10 nM brd (TC-5619/Bradanicline)
[8] = 50 nM CNL001, first column so headed
[9] = 50 nM CNL001, second column so headed
[10] = 100 nM CNL001, first column so headed
[11] = 100 nM CNL001, second column so headed
[12] = 100 nM brd (TC-5619/Bradanicline)
[13] = 1 uM CNL001, first column so headed
[14] = 1 uM CNL001, second column so headed
[15] = 1 uM brd (TC-5619/Bradanicline)

B1: CODA409: engineered receptor: Y210W in SEQ ID NO: 33 (protein)
chain: MRCSPGGVWLALAASLLHVSLQGEFQRKLYKELVKNYNPLERPVANDSQPLTVYFSLSLLQIMDVDEKNQVLTTNIWLQMSWTDHYLQWNVSEYPGVKTVRFPDGQIWKPDILLYNSADERFDATFHTNVLVNSSGHCQYLPPGIFKSSCPMDLKNFPMDVQTCKLKFGSWSYGGWSLDLQMQEADISGYIPNGEWDLVGIPGKRSERFWECCKEPYPDVTFTVTMRRRMGYYLIQMYIPSLLIVILSWISFWINMDAAPARVGLGITTVLTMTTQSSGSRASLPKVSYVKAIDIWMAVCLLFVFSALLEYAAVNFVSRQHKELLRFRRKRRHHKSPMLNLFQEDEAGEGRFNFSAYGMGPACLQAKDGISVKGANNSNTTNPPPAPSKSPEEMRKLFIQRAKKIDKISRIGFPMAFLIFNMFYWIIYKIVRREDVHNQ
modifications: synthetic sequence of chimeric LGIC
YFP fluorescence quenching using CNL001 (percent quench) [1]: −8.914% | YFP fluorescence quenching using CNL001 (percent quench) [2]: −14.319% | YFP fluorescence quenching using TC-5619/Bradanicline (percent quench) [3]: −13.45% | YFP fluorescence quenching using TC-5619/Bradanicline (percent quench) [4]: −0.64% | YFP fluorescence quenching using CNL001 (percent quench) [5]: −1.444% | YFP fluorescence quenching using CNL001 (percent quench) [6]: 4.393% | YFP fluorescence quenching using TC-5619/Bradanicline (percent quench) [7]: 37.3% | YFP fluorescence quenching using TC-5619/Bradanicline (percent quench) (30 nM brd (TC-5619/Bradanicline)): 76.36% | YFP fluorescence quenching using CNL001 (percent quench) [8]: 11.897% | YFP fluorescence quenching using CNL001 (percent quench) [9]: 11.434% | YFP fluorescence quenching using ABT-126 (percent quench) (50 nM abt (ABT-126)): 8.23% | YFP fluorescence quenching using CNL001 (percent quench) [10]: 12.719% | YFP fluorescence quenching using CNL001 (percent quench) [11]: 16.053% | YFP fluorescence quenching (percent quench) (100 nM CNL002): −14.92% | YFP fluorescence quenching using ABT-126 (percent quench) (100 nM abt (ABT-126)): 55.53% | YFP fluorescence quenching using AZD-0328 (percent quench) (100 nM azd0328): −6.57% | YFP fluorescence quenching using TC-5619/Bradanicline (percent quench) [12]: 72.72% | YFP fluorescence quenching using ABT-126 (percent quench) (300 nM abt (ABT-126)): 74.82% | YFP fluorescence quenching using AZD-0328 (percent quench) (300 nM azd0328): −4.84% | YFP fluorescence quenching using TC-5619/Bradanicline (percent quench) (300 nM brd (TC-5619/Bradanicline)): 75.47% | YFP fluorescence quenching using ABT-126 (percent quench) (500 nM abt (ABT-126)): 77.39% | YFP fluorescence quenching using CNL001 (percent quench) [13]: 14.077% | YFP fluorescence quenching using CNL001 (percent quench) [14]: 15.495% | YFP fluorescence quenching (percent quench) (1 uM CNL002): −0.85% | YFP fluorescence quenching using ABT-126 (percent quench) (1 uM abt (ABT-126)): 77.77% | YFP fluorescence quenching using TC-5619/Bradanicline (percent quench) [15]: 78.73% | YFP fluorescence quenching using ABT-126 (percent quench) (3 uM abt (ABT-126)): 69.33% | YFP fluorescence quenching using ABT-126 (percent quench) (10 uM abt (ABT-126)): 74.79% | YFP fluorescence quenching (percent quench) (10 uM ach (acetylcholine)): −5.43% | YFP fluorescence quenching (percent quench) (30 uM CNL002): 29.62% | YFP fluorescence quenching using ABT-126 (percent quench) (30 uM abt (ABT-126)): 75.61% | YFP fluorescence quenching using AZD-0328 (percent quench) (30 uM azd0328): 81.64% | YFP fluorescence quenching using ABT-126 (percent quench) (50 uM abt (ABT-126)): 75.72% | YFP fluorescence quenching using ABT-126 (percent quench) (100 uM abt (ABT-126)): 78.52% | YFP fluorescence quenching (percent quench) (100 uM ach (acetylcholine)): 17.14% | YFP fluorescence quenching (percent quench) (1 mM ach (acetylcholine)): 78.84% | YFP fluorescence quenching (percent quench) (3 mM ach (acetylcholine)): 78.55% | YFP fluorescence quenching using Facinicline, 30 nM fac: −10.93 | YFP fluorescence quenching using Facinicline, 300 nM fac: −5.82 | YFP fluorescence quenching using Facinicline, 10 uM fac: 60.97 | YFP fluorescence quenching using Facinicline, 30 uM fac: 57.77 | YFP fluorescence quenching using TC-6987, 1 uM tc6987: 62.82 | YFP fluorescence quenching using TC-6987, 10 uM tc6987: 78.66 | YFP fluorescence quenching using TC-6987, 500 uM tc6987: 70.35 | YFP fluorescence quenching using Varenicline, 3 nM var (first column): 7.776 | YFP fluorescence quenching using Varenicline, 3 nM var (second column): −2.964 | YFP fluorescence quenching using Varenicline, 30 nM var (first column): −5.568 | YFP fluorescence quenching using Varenicline, 30 nM var (second column): 3.024 | YFP fluorescence quenching using Varenicline, 300 nM var (first column): 2.815 | YFP fluorescence quenching using Varenicline, 300 nM var (second column): 3.06 | YFP fluorescence quenching using Varenicline, 500 nM var (first column): 1.766 | YFP fluorescence quenching using Varenicline, 500 nM var (second column): 2.819 | YFP fluorescence quenching using Varenicline, 1 uM var (first column): 1.844 | YFP fluorescence quenching using Varenicline, 1 uM var (second column): −4.059

B2: CODA534: engineered receptor: L131S, S172D in SEQ ID NO: 33 (protein)
chain: MRCSPGGVWLALAASLLHVSLQGEFQRKLYKELVKNYNPLERPVANDSQPLTVYFSLSLLQIMDVDEKNQVLTTNIWLQMSWTDHYLQWNVSEYPGVKTVRFPDGQIWKPDILLYNSADERFDATFHTNVSVNSSGHCQYLPPGIFKSSCPMDLKNFPMDVQTCKLKFGSWDYGGWSLDLQMQEADISGYIPNGEWDLVGIPGKRSERFYECCKEPYPDVTFTVTMRRRMGYYLIQMYIPSLLIVILSWISFWINMDAAPARVGLGITTVLTMTTQSSGSRASLPKVSYVKAIDIWMAVCLLFVFSALLEYAAVNFVSRQHKELLRFRRKRRHHKSPMLNLFQEDEAGEGRFNFSAYGMGPACLQAKDGISVKGANNSNTTNPPPAPSKSPEEMRKLFIQRAKKIDKISRIGFPMAFLIFNMFYWIIYKIVRREDVHNQ
modifications: synthetic sequence of chimeric LGIC
YFP fluorescence quenching using CNL001 (percent quench) [1]: 23.438% | YFP fluorescence quenching using CNL001 (percent quench) [2]: 28.59% | YFP fluorescence quenching using TC-5619/Bradanicline (percent quench) [3]: −1.13% | YFP fluorescence quenching using TC-5619/Bradanicline (percent quench) [4]: −3.83% | YFP fluorescence quenching using CNL001 (percent quench) [5]: 56.882% | YFP fluorescence quenching using CNL001 (percent quench) [6]: 56.777% | YFP fluorescence quenching using TC-5619/Bradanicline (percent quench) [7]: −3.78% | YFP fluorescence quenching using TC-6683 (percent quench) (30 nM TC-6683): −22.464% | YFP fluorescence quenching using CNL001 (percent quench) [8]: 65.044% | YFP fluorescence quenching using CNL001 (percent quench) [9]: 67.373% | YFP fluorescence quenching using ABT-126 (percent quench) (50 nM abt (ABT-126)): −11.96% | YFP fluorescence quenching using CNL001 (percent quench) [10]: 68.666% | YFP fluorescence quenching using CNL001 (percent quench) [11]: 70.357% | YFP fluorescence quenching (percent quench) (100 nM CNL002): 14.26% | YFP fluorescence quenching using ABT-126 (percent quench) (100 nM abt (ABT-126)): −10.72% | YFP fluorescence quenching using AZD-0328 (percent quench) (100 nM azd0328): −9.32% | YFP fluorescence quenching using TC-5619/Bradanicline (percent quench) [12]: −2.03% | YFP fluorescence quenching using TC-6683 (percent quench) (300 nM TC-6683): −23.976% | YFP fluorescence quenching using ABT-126 (percent quench) (300 nM abt (ABT-126)): 11.65% | YFP fluorescence quenching using AZD-0328 (percent quench) (300 nM azd0328): 4.94% | YFP fluorescence quenching using CNL001 (percent quench) [13]: 73.019% | YFP fluorescence quenching using CNL001 (percent quench) [14]: 73.527% | YFP fluorescence quenching (percent quench) (1 uM CNL002): 45.55% | YFP fluorescence quenching using ABT-126 (percent quench) (1 uM abt (ABT-126)): −3.06% | YFP fluorescence quenching using TC-5619/Bradanicline (percent quench) [15]: 1.68% | YFP fluorescence quenching using TC-6683 (percent quench) (3 uM TC-6683): −24.897% | YFP fluorescence quenching (percent quench) (10 uM ach (acetylcholine)): −11.3% | YFP fluorescence quenching (percent quench) (30 uM CNL002): 64.93% | YFP fluorescence quenching using TC-6683 (percent quench) (30 uM TC-6683): −20.474% | YFP fluorescence quenching using AZD-0328 (percent quench) (30 uM azd0328): 60.61% | YFP fluorescence quenching using TC-6683 (percent quench) (100 uM TC-6683): −22.253% | YFP fluorescence quenching (percent quench) (100 uM ach (acetylcholine)): −27.53% | YFP fluorescence quenching (percent quench) (1 mM ach (acetylcholine)): 2.84% | YFP fluorescence quenching (percent quench) (3 mM ach (acetylcholine)): 14.65% | YFP fluorescence quenching using Facinicline, 30 nM fac: −23.44 | YFP fluorescence quenching using Facinicline, 300 nM fac: 2.75 | YFP fluorescence quenching using Facinicline, 10 uM fac: 69.71 | YFP fluorescence quenching using Facinicline, 30 uM fac: 61.44 | YFP fluorescence quenching using TC-6987, 1 uM tc6987: −20.99 | YFP fluorescence quenching using TC-6987, 10 uM tc6987: −27.62 | YFP fluorescence quenching using TC-6987, 500 uM tc6987: −24.22
